This is an account of results in US20170224836A1 (Novartis, published 2017).

B1: NOV0712-SMCC-DM1 (antibody, human IgG1, kappa, V domains shown)
VH: QVQLLESGGGLVQPGGSLRLSCAASGFTFSSHGMHWVRQAPGKGLEWVSVISGSGSNTGYADSVKGRFTISRDNSKNTLYLQMNSLRAEDTAVYYCARQWGSYAFDSWGQGTLVTVSS
VL: DIQMTQSPSSLSASVGDRVTITCRASQSISSYLNWYQQKPGKAPKLLIYAVSTLQSGVPSRFSGSGSGTDFTLTISSLQPEDFATYYCQQSGTFPPTTFGQGTKVEIKR
modifications: SMCC-DM1 on primary amines, sites not stated
B2: NOV0718-SMCC-DM1 (antibody, human IgG1, lambda, V domains shown)
VH: QVQLVESGGGLVKPGGSLRLSCAASGFTFNSYALHWVRQAPGKGLEWVGRIKSKTNGGTTDYAAPVKGRFTISRDDSKNTLYLQMNSLKTEDTAVYYCARVDATYSYSGYYYPMDYWGQGTLVTVSS
VL: DIELTQPPSVSVSPGQTASITCSGDKIPTYTVHWYQQKPGQAPVLVIYDDNKRPSGIPERFSGSNSGNTATLTISGTQAEDEADYYCQSTASGTVVFGGGTKLTVLG
modifications: SMCC-DM1 on primary amines, sites not stated
B3: NOV0720-SMCC-DM1 (antibody, human IgG1, lambda, V domains shown)
VH: QVQLQQSGPGLVKPSQTLSLTCAISGDSVSSNSAGWNWIRQSPSRGLEWLGRIYYRSKWYNDYAVSVKSRITINPDTSKNQFSLQLNSVTPEDTAVYYCAREKYTVSFYDFFDYWGQGTLVTVSS
VL: DIELTQPPSVSVSPGQTASITCSGDNIGSMTAHWYQQKPGQAPVLVIYDKNERPSGIPERFSGSNSGNTATLTISGTQAEDEADYYCQSWDDSYNSVVFGGGTKLTVLG
modifications: SMCC-DM1 on primary amines, sites not stated
B4: NOV0709-SMCC-DM1 (antibody, human IgG1, lambda, V domains shown)
VH: QVQLLESGGGLVQPGGSLRLSCAASGFTFSTYYMHWVRQAPGKGLEWVSVISSDGSFTFYADSVKGRFTISRDNSKNTLYLQMNSLRAEDTAVYYCARHGYGAFDYWGQGTLVTVSS
VL: DIALTQPASVSGSPGQSITISCTGTSSDVGSYNYVSWYQQHPGKAPKLMIYYVSNRPSGVSNRFSGSKSGNTASLTISGLQAEDEADYYCASYTHQGSWVFGGGTKLTVLG
modifications: SMCC-DM1 on primary amines, sites not stated
B5: NOV0719-SMCC-DM1 (antibody, human IgG1, kappa, V domains shown)
VH: QVQLLESGGGLVQPGGSLRLSCAASGFTFSSHWVHWVRQAPGKGLEWVSVISYMGSSTYYADSVKGRFTISRDNSKNTLYLQMNSLRAEDTAVYYCARGSYDMAFDVWGQGTLVTVSS
VL: DIQMTQSPSSLSASVGDRVTITCRASQSIVSYLNWYQQKPGKAPKLLIYDASSLQSGVPSRFSGSGSGTDFTLTISSLQPEDFATYYCQQSGSHSITFGQGTKVEIKR
modifications: SMCC-DM1 on primary amines, sites not stated
B6: NOV0713-SMCC-DM1 (antibody, human IgG1, lambda, V domains shown)
VH: QVQLQQSGPGLVKPSQTLSLTCAISGDSVSSNSAAWNWIRQSPSRGLEWLGRIYYRSKWYNDYAVSVKSRITINPDTSKNQFSLQLNSVTPEDTAVYYCARGLVGRYGQPYHFDVWGQGTLVTVSS
VL: DIELTQPPSVSVSPGQTASITCSGDNLRSYYVHWYQQKPGQAPVLVIYGNNKRPSGIPERFSGSNSGNTATLTISGTQAEDEADYYCGVYTLSSVVFGGGTKLTVLG
modifications: SMCC-DM1 on primary amines, sites not stated
B7: NOV0712-SPDB-DM4 (antibody, human IgG1, kappa, V domains shown)
VH: B1 VH
VL: B1 VL
modifications: SPDB-DM4 on primary amines, sites not stated
B8: NOV0710-SPDB-DM4 (antibody, human IgG1, kappa, V domains shown)
VH: QVQLLESGGGLVQPGGSLRLSCAASGFTFSSYAMSWVRQAPGKGLEWVSVIRSSGSSTYYADSVKGRFTISRDNSKNTLYLQMNSLRAEDTAVYYCARGGGYFDYWGQGTLVTVSS
VL: DIQMTQSPSSLSASVGDRVTITCRASQSISLWLNWYQQKPGKAPKLLIYAASTLQSGVPSRFSGSGSGTDFTLTISSLQPEDFATYYCQQYYTSPYTFGQGTKVEIKR
modifications: SPDB-DM4 on primary amines, sites not stated
B9: NOV0692 (antibody, human IgG1, lambda, V domains shown)
VH: QVQLVESGGGLVKPGGSLRLSCAASGFTFSRYWMDWVRQAPGKGLEWVGRIKSKANGGITDYAAPVKGRFTISRDDSKNTLYLQMNSLKTEDTAVYYCARGMTFLGIWGQGTLVTVSS
VL: DIELTQPPSVSVSPGQTASITCSGDSIGSKYAQWYQQKPGQAPVLVIYYNSERPSGIPERFSGSNSGNTATLTISGTQAEDEADYYCQSWDGQSTIRVFGGGTKLTVLG

In one assay the target is T1, human CDH6 on cells (human, UniProt P55285 54-790).
T1 sequence: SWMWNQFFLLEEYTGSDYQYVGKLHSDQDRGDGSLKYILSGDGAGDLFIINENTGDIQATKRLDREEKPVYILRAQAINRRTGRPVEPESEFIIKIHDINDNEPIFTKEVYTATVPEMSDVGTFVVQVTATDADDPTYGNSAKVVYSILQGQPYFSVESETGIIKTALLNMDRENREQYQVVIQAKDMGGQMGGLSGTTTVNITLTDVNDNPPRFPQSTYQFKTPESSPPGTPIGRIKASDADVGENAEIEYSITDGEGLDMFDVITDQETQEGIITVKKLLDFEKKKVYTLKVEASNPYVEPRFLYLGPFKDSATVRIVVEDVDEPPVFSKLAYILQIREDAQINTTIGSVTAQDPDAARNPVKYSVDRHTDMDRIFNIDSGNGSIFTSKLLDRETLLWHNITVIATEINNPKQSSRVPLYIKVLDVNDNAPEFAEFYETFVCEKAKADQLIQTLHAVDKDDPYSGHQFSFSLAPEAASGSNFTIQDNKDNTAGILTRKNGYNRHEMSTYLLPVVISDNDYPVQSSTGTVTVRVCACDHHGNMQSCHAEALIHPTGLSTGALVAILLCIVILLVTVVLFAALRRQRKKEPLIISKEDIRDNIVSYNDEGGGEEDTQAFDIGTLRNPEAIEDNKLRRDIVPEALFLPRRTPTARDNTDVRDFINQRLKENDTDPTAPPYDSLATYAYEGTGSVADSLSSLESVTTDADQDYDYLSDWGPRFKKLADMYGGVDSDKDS
Put plainly: cell-based or functional assay.
As for B1, the “percent inhibition at 1.22 nM ADC, JHOS4 cells” value (shortened to “percent inhibition … JHOS4 cells”) was determined as 67.6%; the “percent inhibition at 1.22 nM ADC, KNS42 cells” value (“percent inhibition … KNS42 cells” for short) was found to be 56.8%; the “percent inhibition at 1.22 nM ADC, NCIH661 cells” value is 32.5%; the “percent inhibition at 1.22 nM ADC, OVCAR3 cells” value was determined as 87.6%. For the same molecule, the “percent inhibition at 1.22 nM ADC, SNU8 cells” value (“percent inhibition … SNU8 cells” below) is 31.4%.

As to B2, the “percent inhibition … JHOS4 cells” value is -5.03%; the “percent inhibition … KNS42 cells” value came out at 3.5%; the “percent inhibition at 1.22 nM ADC, NCIH661 cells” value amounted to 2.51%; the “percent inhibition at 1.22 nM ADC, OVCAR3 cells” value is -3.8%. Moreover, the “percent inhibition … SNU8 cells” value stood at 3.35%.

With B3, the “percent inhibition … JHOS4 cells” value was 43.5%; the “percent inhibition … KNS42 cells” value was 57%; the “percent inhibition at 1.22 nM ADC, NCIH661 cells” value stood at 1.94%; the “percent inhibition at 1.22 nM ADC, OVCAR3 cells” value stood at 80.7%. Moreover, the “percent inhibition … SNU8 cells” value came out at 3.56%.

Take B4: the “percent inhibition … JHOS4 cells” value was found to be 4.5%; the “percent inhibition … KNS42 cells” value was -4.2%; the “percent inhibition at 1.22 nM ADC, NCIH661 cells” value amounted to 5.91%; the “percent inhibition at 1.22 nM ADC, OVCAR3 cells” value came out at 46.9%. For the same molecule, the “percent inhibition … SNU8 cells” value is -7.7%.

For B5, the “percent inhibition … JHOS4 cells” value was found to be 27.2%; the “percent inhibition … KNS42 cells” value was determined as 41%; the “percent inhibition at 1.22 nM ADC, NCIH661 cells” value is -9.87%; the “percent inhibition at 1.22 nM ADC, OVCAR3 cells” value was found to be 76%. In addition, the “percent inhibition … SNU8 cells” value came out at 3.18%.

For the molecule B6, the “percent inhibition … JHOS4 cells” value is -6.22%; the “percent inhibition … KNS42 cells” value was -17.3%; the “percent inhibition at 1.22 nM ADC, NCIH661 cells” value was -9.74%; the “percent inhibition at 1.22 nM ADC, OVCAR3 cells” value is -3.55%. Moreover, the “percent inhibition … SNU8 cells” value was 7.79%.

In another assay the target is T1, human CDH6 on cells. Description: cell-based or functional assay. This is another data set of the same source.
Turning to B1, the “Amax (%), inhibition of proliferation, OVCAR3 cells” value (from here on “Amax (%), inhibition … OVCAR3 cells”) turned out to be 88%; the “Amax (%), inhibition of proliferation, OVCAR8 (engineered CDH6+) cells” value (“Amax (%), inhibition … (engineered CDH6+) cells” below) came out at 95%; the “IP [nM], inhibition of proliferation, OVCAR3 cells” value (“IP [nM], inhibition … OVCAR3 cells” for short) was 0.065 nM; the “IP [nM], inhibition of proliferation, OVCAR8 (engineered CDH6+) cells” value (shortened to “IP [nM], inhibition … (engineered CDH6+) cells”) was found to be 0.015 nM.

Turning to B7, the “Amax (%), inhibition … OVCAR3 cells” value was 88%; the “Amax (%), inhibition … (engineered CDH6+) cells” value turned out to be 84%; the “IP [nM], inhibition … OVCAR3 cells” value was 0.008 nM; the “IP [nM], inhibition … (engineered CDH6+) cells” value amounted to 0.012 nM.

For B8, the “Amax (%), inhibition … OVCAR3 cells” value worked out at 88%; the “Amax (%), inhibition … (engineered CDH6+) cells” value is 85%; the “IP [nM], inhibition … OVCAR3 cells” value turned out to be 0.01 nM; the “IP [nM], inhibition … (engineered CDH6+) cells” value was found to be 0.018 nM.

The next assay has as its target T2, hCDH6aa54-615 APPavi (human, UniProt P55285 54-615).
T2 sequence: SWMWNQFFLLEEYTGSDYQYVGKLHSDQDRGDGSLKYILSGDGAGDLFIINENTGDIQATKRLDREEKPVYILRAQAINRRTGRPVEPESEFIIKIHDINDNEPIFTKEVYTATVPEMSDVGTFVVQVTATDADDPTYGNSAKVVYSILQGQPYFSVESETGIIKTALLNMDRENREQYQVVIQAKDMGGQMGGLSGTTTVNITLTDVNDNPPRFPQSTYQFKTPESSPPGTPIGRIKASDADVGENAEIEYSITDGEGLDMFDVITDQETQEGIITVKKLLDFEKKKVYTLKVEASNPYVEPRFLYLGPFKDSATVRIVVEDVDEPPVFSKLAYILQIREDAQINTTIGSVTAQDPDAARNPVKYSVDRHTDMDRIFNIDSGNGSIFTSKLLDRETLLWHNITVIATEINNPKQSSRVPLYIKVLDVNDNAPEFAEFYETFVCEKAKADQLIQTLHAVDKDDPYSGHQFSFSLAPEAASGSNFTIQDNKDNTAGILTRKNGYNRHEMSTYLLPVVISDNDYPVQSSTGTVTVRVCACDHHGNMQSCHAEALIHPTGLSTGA
Put plainly: SPR binning.
For the molecule B9, the “response of secondary antibody on primary antibody-CDH6 complex” value (from here on “response of secondary antibody”) was -2.84.

A further assay concerns the target T2, hCDH6aa54-615 APPavi. Description: SPR binning. This is another data set of the same source.
Consider B9, for which the “response of secondary antibody” value was found to be 17.9.

The next assay addresses T2, hCDH6aa54-615 APPavi. Description: SPR binning. The source holds these as a separate data set.
Regarding B9, the “response of secondary antibody” value was 14.1.

A further assay deals with T2, hCDH6aa54-615 APPavi. Put plainly: SPR binning. The source holds these as a separate data set.
Consider B9, for which the “response of secondary antibody” value is 35.5.

The next assay concerns the target T2, hCDH6aa54-615 APPavi. Put plainly: SPR binning. This is another data set of the same source.
Take B9: the “response of secondary antibody” value was 7.83.

In the next assay the target is T2, hCDH6aa54-615 APPavi. Put plainly: SPR binning. The source holds these as a separate data set.
Regarding B9, the “response of secondary antibody” value is 23.2.
